What all share (assay): EMSA
What all share (conditions): EMSA with 5' 32P PCR fragments, MarA 1, 2 or 4 uM, PAGE at 150 V; buffer, salt, pH and temperature not given (cited method)

One data set has as its target T1, MarA (Escherichia coli) (UniProt P0ACH5).
T1 sequence: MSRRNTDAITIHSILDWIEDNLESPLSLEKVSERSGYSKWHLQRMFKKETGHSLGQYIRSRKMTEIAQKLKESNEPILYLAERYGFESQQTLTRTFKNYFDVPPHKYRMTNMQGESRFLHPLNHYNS

Another data set addresses T2, Rob (Escherichia coli) (UniProt P0ACI0).
T2 sequence: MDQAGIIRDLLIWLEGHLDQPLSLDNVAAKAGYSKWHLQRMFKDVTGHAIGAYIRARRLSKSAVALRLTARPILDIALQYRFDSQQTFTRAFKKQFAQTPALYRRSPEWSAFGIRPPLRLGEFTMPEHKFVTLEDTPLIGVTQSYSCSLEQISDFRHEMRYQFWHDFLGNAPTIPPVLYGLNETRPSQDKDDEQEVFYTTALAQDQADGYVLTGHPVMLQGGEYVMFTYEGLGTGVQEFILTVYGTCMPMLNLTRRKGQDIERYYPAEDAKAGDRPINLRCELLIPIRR

Another data set addresses T3, SoxS (Escherichia coli) (UniProt P0A9E2).
T3 sequence: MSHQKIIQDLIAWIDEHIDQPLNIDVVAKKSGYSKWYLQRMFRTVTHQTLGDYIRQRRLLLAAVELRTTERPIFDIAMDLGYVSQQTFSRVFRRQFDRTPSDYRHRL

For twelve sequences, binding results are on record in publication PMC12052159.

Regarding “AATTCATTGGCCAGAGGGTTTGGTTGGGTGAGAATGTGACGGTTTTGCCTGGAACAATTATTGGTAATGGAGTCGTAGTCGGCGCCAATTCTGTTGTTAGAGGTTCTATTCCCGAAAATACTGTCATTGCGGGAGTACCAGCAAAAATCATAAAGAAATACAATCATGAGACCAAATTATGAAGCTTCGGGC / GCCCGAAGCTTCATAATTTGGTCTCATGATTGTATTTCTTTATGATTTTTGCTGGTACTCCCGCAATGACAGTATTTTCGGGAATAGAACCTCTAACAACAGAATTGGCGCCGACTACGACTCCATTACCAATAATTGTTCCAGGCAAAACCGTCACATTCTCACCCAACCAAACCCTCTGGCCAATG [wbbK regulatory region]”, in the data set with MarA (Escherichia coli), the binding entry is listed as “no binding”.

For “AATTCCATGGTGTACGGTTCCTGCGAGATGGGAAAGTAAAAATCCGCGGCATGATATAGCAATTATCGATAATTAACATCCACACATTTTACGCTACATTTGCGCATTAAAAATTATTTGTTATTTACAAGCGCGGCAAGGGCCGCCAGTCTTCAGCCACAAATTTTGGTTGCGGGCGAAAAAATGCGACAATACATACAATTGCCCGAATAGGTTGAAAAACAGGATTGATATGAAGCTTCGGGC / GCCCGAAGCTTCATATCAATCCTGTTTTTCAACCTATTCGGGCAATTGTATGTATTGTCGCATTTTTTCGCCCGCAACCAAAATTTGTGGCTGAAGACTGGCGGCCCTTGCCGCGCTTGTAAATAACAAATAATTTTTAATGCGCAAATGTAGCGTAAAATGTGTGGATGTTAATTATCGATAATTGCTATATCATGCCGCGGATTTTTACTTTCCCATCTCGCAGGAACCGTACACCATGG [lpxLmut3 regulatory region]”, the binding entry in the data set with MarA (Escherichia coli) is on record as “binds”.

With “AATTCTGCAACTAAACCGTGGCACAAATGGGCAATTTATCCATCGGTAAAATACTATAAAATAGCTTTAGAAAATTCCCCCTGGAAAGATGACTCTCCACGAGATGCGAAATCAATTATTGAATTTAAAAAAAGATATAAACATCTTTTAGTGCAACATCATTATATCTCAGGAATTATAGCAGGAGTCTGTTATCTTTGCCGAAAATATTACCGTAAATAACATTTAACTGGTTTATTATGAAGCTTCGGGC / GCCCGAAGCTTCATAATAAACCAGTTAAATGTTATTTACGGTAATATTTTCGGCAAAGATAACAGACTCCTGCTATAATTCCTGAGATATAATGATGTTGCACTAAAAGATGTTTATATCTTTTTTTAAATTCAATAATTGATTTCGCATCTCGTGGAGAGTCATCTTTCCAGGGGGAATTTTCTAAAGCTATTTTATAGTATTTTACCGATGGATAAATTGCCCATTTGTGCCACGGTTTAGTTGCAG [rfaY (waaY) regulatory region]”, the binding entry with Rob (Escherichia coli), in the data set with SoxS (Escherichia coli) and in the data set with MarA (Escherichia coli) was “binds” throughout.

For the sequence “AATTCTGCGTAAGCAAGCTGATTAAGAATTGACTGGAATTTGGGTTTCGAGTGTGTTTGTGCTAAACTGGCCCGCCGAATGTATAGTACACTTCGGTTGGATAGGTAATTTGGCGAGATAATACGATGAAGCTTCGGGC / GCCCGAAGCTTCATCGTATTATCTCGCCAAATTACCTATCCAACCGAAGTGTACTATACATTCGGCGGGCCAGTTTAGCACAAACACACTCGAAACCCAAATTCCAGTCAATTCTTAATCAGCTTGCTTACGCAG [lpxCmut regulatory region]”, the binding entry with MarA (Escherichia coli) is given as “binds more weakly”.

As for “GCCCGAAGCTTCATAACTGTAACCTTCGAATTATGGAGTCAGAGACAATCTCAGACACGAATGTCTGTAATCATACCATCACATCCGAATCCCTTCAGCCCTTTACATAGAGGTGCAAGGATGCTAATTGCAACAAACTAGTTTGGGTTTTAGCTAGTCCTTCATGGCGGATGTTGGTTTTGCATGTGAATAGTGCG / AATTCGCACTATTCACATGCAAAACCAACATCCGCCATGAAGGACTAGCTAAAACCCAAACTAGTTTGTTGCAATTAGCATCCTTGCACCTCTATGTAAAGGGCTGAAGGGATTCGGATGTGATGGTATGATTACAGACATTCGTGTCTGAGATTGTCTCTGACTCCATAATTCGAAGGTTACAGTTATGAAGCTTCGGGC [waaD regulatory region]”, in the data set with MarA (Escherichia coli), the binding result is reported as “no binding”.

Take “GCCCGAAGCTTCATAGTAAATAGCTGACTTATGGATGTGCTGGGGATTCTATGTATTTAGCTGTGGCTTTACCATTACTTTTCCCGTTTTTGACTTAAATAGCTTCAGTTTGGTCTGATCTGCCGCTACATCTTCATTTTTTTTGTATTTTTATGCGATTCATTGAAACTCGGCCCG / AATTCGGGCCGAGTTTCAATGAATCGCATAAAAATACAAAAAAAATGAAGATGTAGCGGCAGATCAGACCAAACTGAAGCTATTTAAGTCAAAAACGGGAAAAGTAATGGTAAAGCCACAGCTAAATACATAGAATCCCCAGCACATCCATAAGTCAGCTATTTACTATGAAGCTTCGGGC [kdtA (waaA) regulatory region]”: in the data set with MarA (Escherichia coli), the binding result is “binds”.

In the case of “GCCCGAAGCTTCATATCAATCCTGTTTTTCAACCTATTCGGGCAATTGTATGTATTGTCGCATTTTTTCGCCCGCAACCAAAATTTGTGGCTGAAGACTGGGCGAAATTGCCGCGCTTGTAAATAACAAATAATTTTTAATGCGCAAATGTAGCGTAAAATGTGTGGATGTTAATTATCGATAATACATATATCATGCCGCGGATTTTTACTTTCCCATCTCGCAGGAACCGTACACCATGG / AATTCCATGGTGTACGGTTCCTGCGAGATGGGAAAGTAAAAATCCGCGGCATGATATATGTATTATCGATAATTAACATCCACACATTTTACGCTACATTTGCGCATTAAAAATTATTTGTTATTTACAAGCGCGGCAATTTCGCCCAGTCTTCAGCCACAAATTTTGGTTGCGGGCGAAAAAATGCGACAATACATACAATTGCCCGAATAGGTTGAAAAACAGGATTGATATGAAGCTTCGGGC [lpxLmut1 regulatory region]”, the binding entry with MarA (Escherichia coli) is “binds more weakly”.

As for “GCCCGAAGCTTCATATCAATCCTGTTTTTCAACCTATTCGGGCAATTGTATGTATTGTCGCATTTTTTCGCCCGCAACCAAAATTTGTGGCTGAAGACTGGGCGAAATTGCCGCGCTTGTAAATAACAAATAATTTTTAATGCGCAAATGTAGCGTAAAATGTGTGGATGTTAATTATCGATAATTGCTATATCATGCCGCGGATTTTTACTTTCCCATCTCGCAGGAACCGTACACCATGG / AATTCCATGGTGTACGGTTCCTGCGAGATGGGAAAGTAAAAATCCGCGGCATGATATAGCAATTATCGATAATTAACATCCACACATTTTACGCTACATTTGCGCATTAAAAATTATTTGTTATTTACAAGCGCGGCAATTTCGCCCAGTCTTCAGCCACAAATTTTGGTTGCGGGCGAAAAAATGCGACAATACATACAATTGCCCGAATAGGTTGAAAAACAGGATTGATATGAAGCTTCGGGC [lpxL regulatory region]”, the binding entry in the data set with Rob (Escherichia coli), with SoxS (Escherichia coli) and in the data set with MarA (Escherichia coli) was “binds” in each case.

Turning to “GCCCGAAGCTTCATATCAATCCTGTTTTTCAACCTATTCGGGCAATTGTATGTATTGTCGCATTTTTTCGCCCGCAACCAAAATTTGTGGCTGAAGACTGGGCGAAATTGCCGCGCTTGTAAATAACAAATAATTTTTAATGCTGTAATGTAGCGTAAAATGTGTGGATGTTAATTATCGATAATTGCTATATCATGCCGCGGATTTTTACTTTCCCATCTCGCAGGAACCGTACACCATGG / AATTCCATGGTGTACGGTTCCTGCGAGATGGGAAAGTAAAAATCCGCGGCATGATATAGCAATTATCGATAATTAACATCCACACATTTTACGCTACATTACAGCATTAAAAATTATTTGTTATTTACAAGCGCGGCAATTTCGCCCAGTCTTCAGCCACAAATTTTGGTTGCGGGCGAAAAAATGCGACAATACATACAATTGCCCGAATAGGTTGAAAAACAGGATTGATATGAAGCTTCGGGC [lpxLmut2 regulatory region]”, the binding entry in the data set with MarA (Escherichia coli) is listed as “binds”.

For “GCCCGAAGCTTCATCGTATTATCTCGCCAAATTACCTATCCAACCGAAGTGTACTATACATTCGGCGGGCCAGTTTAGCACAAAGAGCCTCGAAACCCAAATTCCAGTCAATTCTTAATCAGCTTGCTTACGCAG / AATTCTGCGTAAGCAAGCTGATTAAGAATTGACTGGAATTTGGGTTTCGAGGCTCTTTGTGCTAAACTGGCCCGCCGAATGTATAGTACACTTCGGTTGGATAGGTAATTTGGCGAGATAATACGATGAAGCTTCGGGC [lpxC regulatory region]”, the binding result with Rob (Escherichia coli), in the data set with SoxS (Escherichia coli) and with MarA (Escherichia coli) was “binds” each time.

With “GCCCGAAGCTTCATGATGAGCATTCAGATAGTGGTTCACGCGCACGGGTTGCGCACCGCCGGAGTAAGGATTTACTGAGGCTAGCGACGCCATCATAACGAGCAAAAAGACAGATCGTCAAAGGAGAATCGTGAGGAAATGCTGCATTGCTGACATTTACGCCG / AATTCGGCGTAAATGTCAGCAATGCAGCATTTCCTCACGATTCTCCTTTGACGATCTGTCTTTTTGCTCGTTATGATGGCGTCGCTAGCCTCAGTAAATCCTTACTCCGGCGGTGCGCAACCCGTGCGCGTGAACCACTATCTGAATGCTCATCATGAAGCTTCGGGC [pbpGmut regulatory region]”, the binding result with MarA (Escherichia coli) is on record as “no binding”.

On to “GCCCGAAGCTTCATGATGAGCATTCAGATAGTGGTTCACGCGCACGGGTTGCGCACCGCCGGAGTAAGGATTTACTGAGGCTAGCGACGCCATCATAACGAGCAAAAAGTGCGATCGTCAAAGGAGAATCGTGAGGAAATGCTGCATTGCTGACATTTACGCCG / AATTCGGCGTAAATGTCAGCAATGCAGCATTTCCTCACGATTCTCCTTTGACGATCGCACTTTTTGCTCGTTATGATGGCGTCGCTAGCCTCAGTAAATCCTTACTCCGGCGGTGCGCAACCCGTGCGCGTGAACCACTATCTGAATGCTCATCATGAAGCTTCGGGC [pbpG regulatory region]”, for which the binding result with MarA (Escherichia coli) is on record as “binds”.
